The series has as its target HER2 (human, UniProt P04626 23-652). Put plainly: SPR.

B1: HER2 aptamer (ssDNA)
DNA: AACCGCCCAAATCCCTAAGAGTCTGCACTTGTCATTTTGTATATGTATTTGGTTTTTGGCTCTCACAGACACACTACACACGCACA
modifications: 5'-SH-(CH2)6
Take B1: the binding result is given as “binds”.
